According to article PMC11480506:
Each block holds one substance with its values, some of them ahead of it.

Experiments:
[1] = target: mCherry-IRE1α LD 352LNYL355-GSGS-10His (human) (UniProt O75460); assay: mass photometry; protein tethered by C-terminal 10His to supported lipid bilayers (99 mol% POPC, 1 mol% Ni-NTA lipids); 75 nM protein; 25 mM HEPES pH 7.3, 150 mM NaCl, 250 µM TCEP
[2] = target: mCherry-IRE1α LD 352LNYL355-GSGS-10His (human) (UniProt O75460); assay: mass photometry; protein tethered by C-terminal 10His to supported lipid bilayers (99 mol% POPC, 1 mol% Ni-NTA lipids); 100 nM protein; 25 mM HEPES pH 7.3, 150 mM NaCl, 250 µM TCEP
[3] = target: human IRE1α lumenal domain (IRE1α LD, aa 24-443) (human) (UniProt O75460); assay: fluorescence polarisation; fluorescence anisotropy of N-terminal fluorescein labeled peptide with IRE1α LD; n = 2 independent experiments
[4] = target: mCherry-IRE1α LD-10His (human) (UniProt O75460); assay: mass photometry; protein tethered by C-terminal 10His to supported lipid bilayers (99 mol% POPC, 1 mol% Ni-NTA lipids); 75 nM protein; 25 mM HEPES pH 7.3, 150 mM NaCl, 250 µM TCEP
[5] = target: mCherry-IRE1α LD-10His (human) (UniProt O75460); assay: mass photometry; protein tethered by C-terminal 10His to supported lipid bilayers (99 mol% POPC, 1 mol% Ni-NTA lipids); 100 nM protein; 25 mM HEPES pH 7.3, 150 mM NaCl, 250 µM TCEP
[6] = target: IRE1α LD 352LNYL355-GSGS mutant (human) (UniProt O75460); assay: AUC; sedimentation velocity (AUC-SV), 25 µM protein
[7] = target: IRE1α LD 312TLPL315-GSGS mutant (human) (UniProt O75460); assay: as above
[8] = target: mCherry-IRE1α LD 312TLPL315-GSGS-10His (human) (UniProt O75460); assay: mass photometry; protein tethered by C-terminal 10His to supported lipid bilayers (99 mol% POPC, 1 mol% Ni-NTA lipids); 75 nM protein; 25 mM HEPES pH 7.3, 150 mM NaCl, 250 µM TCEP
[9] = target: mCherry-IRE1α LD 312TLPL315-GSGS-10His (human) (UniProt O75460); assay: mass photometry; protein tethered by C-terminal 10His to supported lipid bilayers (99 mol% POPC, 1 mol% Ni-NTA lipids); 100 nM protein; 25 mM HEPES pH 7.3, 150 mM NaCl, 250 µM TCEP

UniProt O75460, sequence (O75460 24-443): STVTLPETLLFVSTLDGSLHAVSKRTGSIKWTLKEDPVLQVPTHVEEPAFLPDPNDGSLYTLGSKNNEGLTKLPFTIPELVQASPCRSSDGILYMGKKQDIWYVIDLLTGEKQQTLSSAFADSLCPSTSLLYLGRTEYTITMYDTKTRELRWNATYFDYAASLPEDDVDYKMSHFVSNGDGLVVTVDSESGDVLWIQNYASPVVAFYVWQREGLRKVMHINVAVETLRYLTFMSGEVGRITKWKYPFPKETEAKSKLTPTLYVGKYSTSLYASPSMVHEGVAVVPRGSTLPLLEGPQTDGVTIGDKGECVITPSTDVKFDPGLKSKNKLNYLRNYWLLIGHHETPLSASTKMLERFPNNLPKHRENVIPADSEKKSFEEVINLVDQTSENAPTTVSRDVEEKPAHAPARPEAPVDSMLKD

Substance: mCherry-IRE1α LD 352LNYL355-GSGS-10His (from UniProt O75460 24-443) (domain or fragment)
stoichiometry N [1]: 2
stoichiometry N [2]: 2

Substance: mCherry-IRE1α LD-10His (from UniProt O75460 24-443) (domain or fragment)
stoichiometry N [4]: 2
stoichiometry N [5]: 2

Substance: IRE1α LD 312TLPL315-GSGS mutant (from UniProt O75460 24-443) (domain or fragment)
stoichiometry N [7]: 2

Results, then the substance that gave them:

Kd [3]: 2 µM
Substance: MPZ1N-2X, model unfolded polypeptide (two MPZ1N 12mers in tandem), N-terminal fluorescein labeled

stoichiometry N [6]: 2
Substance: IRE1α LD 352LNYL355-GSGS mutant (from UniProt O75460 24-443) (domain or fragment)

stoichiometry N [8]: 2
stoichiometry N [9]: 2
Substance: mCherry-IRE1α LD 312TLPL315-GSGS-10His (from UniProt O75460 24-443) (domain or fragment)
